Data reported in the MegaScale stability set (Tsuboyama et al. 2023).

B1: HEEH_KT_rd6_3632 (parent)
chain: DAEELIELVERALKEGREIILLGVRITSEEAGKWFIEWIRRFL

Variants of: B1
Experiment: folding stability dG (cDNA display proteolysis); higher = more stable
Details: PBS, room temperature

Variant	folding stability dG
DAEELIELVERALKEGREIILLGVRITSEGAGKWFIEWIRRFL [E30G]	3.64 kcal/mol
DAEELIELVERALKEGREIILLGVRITSEDAGKWFIEWIRRFL [E30D]	3.63 kcal/mol
DAEELIELVERALKEGREIILLGVRITSEMAGKWFIEWIRRFL [E30M]	3.86 kcal/mol
DAEELIELVERALKEGREIILLGVRITSEQAGKWFIEWIRRFL [E30Q]	3.77 kcal/mol
DAEELIELVERALKEGREIILLGVRITSEIAGKWFIEWIRRFL [E30I]	3.75 kcal/mol
DAEELIELVERALKEGREIILLGVRITSENAGKWFIEWIRRFL [E30N]	3.56 kcal/mol
DAEELIELVERALKEGREIILLGVRITSEKAGKWFIEWIRRFL [E30K]	3.65 kcal/mol
DAEELIELVERALKEGREIILLGVRITSEWAGKWFIEWIRRFL [E30W]	4.01 kcal/mol
DAEELIELVERALKEGREIILLGVRITSEPAGKWFIEWIRRFL [E30P]	3.54 kcal/mol
DAEELIELVERALKEGREIILLGVRITSERAGKWFIEWIRRFL [E30R]	3.84 kcal/mol
DAEELIELVERALKEGREIILLGVRITSESAGKWFIEWIRRFL [E30S]	3.69 kcal/mol
DAEELIELVERALKEGREIILLGVRITSEVAGKWFIEWIRRFL [E30V]	3.94 kcal/mol
DAEELIELVERALKEGREIILLGVRITSETAGKWFIEWIRRFL [E30T]	3.57 kcal/mol
DAEELIELVERALKEGREIILLGVRITSEAAGKWFIEWIRRFL [E30A]	4 kcal/mol
DAEELIELVERALKEGREIILLGVRITSEFAGKWFIEWIRRFL [E30F]	3.76 kcal/mol
DAEELIELVERALKEGREIILLGVRITSELAGKWFIEWIRRFL [E30L]	3.91 kcal/mol
DAEELIELVERALKEGREIILLGVRITSEYAGKWFIEWIRRFL [E30Y]	3.75 kcal/mol
DAEELIELVERALKEGREIILLGVRITSEHAGKWFIEWIRRFL [E30H]	3.59 kcal/mol
DAEELIELVERALKEGREIILLGVRITSEEAGKWYIEWIRRFL [F35Y]	3.25 kcal/mol
DAEELIELVERALKEGREIILLGVRITSEEAGKWHIEWIRRFL [F35H]	2.85 kcal/mol

Variant	folding stability dG
DAEELIELVERALKEGREIILLGVRITSEEAGKWEIEWIRRFL [F35E]	2.63 kcal/mol
DAEELIELVERALKEGREIILLGVRITSEEAGKWVIEWIRRFL [F35V]	3.65 kcal/mol
DAEELIELVERALKEGREIILLGVRITSEEAGKWTIEWIRRFL [F35T]	2.96 kcal/mol
DAEELIELVERALKEGREIILLGVRITSEEAGKWRIEWIRRFL [F35R]	2.98 kcal/mol
DAEELIELVERALKEGREIILLGVRITSEEAGKWPIEWIRRFL [F35P]	2.34 kcal/mol
DAEELIELVERALKEGREIILLGVRITSEEAGKWIIEWIRRFL [F35I]	3.85 kcal/mol
DAEELIELVERALKEGREIILLGVRITSEEAGKWSIEWIRRFL [F35S]	2.86 kcal/mol
DAEELIELVERALKEGREIILLGVRITSEEAGKWLIEWIRRFL [F35L]	3.66 kcal/mol
DAEELIELVERALKEGREIILLGVRITSEEAGKWWIEWIRRFL [F35W]	3.44 kcal/mol
DAEELIELVERALKEGREIILLGVRITSEEAGKWGIEWIRRFL [F35G]	2.63 kcal/mol
DAEELIELVERALKEGREIILLGVRITSEEAGKWAIEWIRRFL [F35A]	3.03 kcal/mol
DAEELIELVERALKEGREIILLGVRITSEEAGKWDIEWIRRFL [F35D]	2.6 kcal/mol
DAEELIELVERALKEGREIILLGVRITSEEAGKWQIEWIRRFL [F35Q]	2.85 kcal/mol
DAEELIELVERALKEGREIILLGVRITSEEAGKWMIEWIRRFL [F35M]	3.43 kcal/mol
DAEELIELVERALKEGREIILLGVRITSEEAGKWNIEWIRRFL [F35N]	2.53 kcal/mol
DAEELIELVERALKEGREIILLGVRITSEEAGKWKIEWIRRFL [F35K]	3.08 kcal/mol
DAEELIELVERALKEGREIILLGVRITSEEAGEWFIEWIRRFL [K33E]	3.43 kcal/mol
DAEELIELVERALKEGREIILLGVRITSEEAGGWFIEWIRRFL [K33G]	3.34 kcal/mol
DAEELIELVERALKEGREIILLGVRITSEEAGFWFIEWIRRFL [K33F]	3.48 kcal/mol
DAEELIELVERALKEGREIILLGVRITSEEAGTWFIEWIRRFL [K33T]	3.56 kcal/mol

Variant	folding stability dG
DAEELIELVERALKEGREIILLGVRITSEEAGQWFIEWIRRFL [K33Q]	3.62 kcal/mol
DAEELIELVERALKEGREIILLGVRITSEEAGIWFIEWIRRFL [K33I]	3.56 kcal/mol
DAEELIELVERALKEGREIILLGVRITSEEAGRWFIEWIRRFL [K33R]	4.02 kcal/mol
DAEELIELVERALKEGREIILLGVRITSEEAGNWFIEWIRRFL [K33N]	3.52 kcal/mol
DAEELIELVERALKEGREIILLGVRITSEEAGVWFIEWIRRFL [K33V]	3.55 kcal/mol
DAEELIELVERALKEGREIILLGVRITSEEAGMWFIEWIRRFL [K33M]	3.57 kcal/mol
DAEELIELVERALKEGREIILLGVRITSEEAGAWFIEWIRRFL [K33A]	3.77 kcal/mol
DAEELIELVERALKEGREIILLGVRITSEEAGPWFIEWIRRFL [K33P]	3.2 kcal/mol
DAEELIELVERALKEGREIILLGVRITSEEAGCWFIEWIRRFL [K33C]	3.99 kcal/mol
DAEELIELVERALKEGREIILLGVRITSEEAGLWFIEWIRRFL [K33L]	3.63 kcal/mol
DAEELIELVERALKEGREIILLGVRITSEEAGDWFIEWIRRFL [K33D]	3.38 kcal/mol
DAEELIELVERALKEGREIILLGVRITSEEAGHWFIEWIRRFL [K33H]	3.51 kcal/mol
DAEELIELVERALKEGREIILLGVRITSEEAGYWFIEWIRRFL [K33Y]	3.61 kcal/mol
DAEELIELVERALKEGREIILLGVRITSEEAGSWFIEWIRRFL [K33S]	3.39 kcal/mol
DAEELIELVERALKEGREIILLGVRITSEEAGWWFIEWIRRFL [K33W]	3.7 kcal/mol
DAEELIELVERALKEGREIILLGVRITSEEAGKWFAEWIRRFL [I36A]	3.35 kcal/mol
DAEELIELVERALKEGREIILLGVRITSEEAGKWFHEWIRRFL [I36H]	3.15 kcal/mol
DAEELIELVERALKEGREIILLGVRITSEEAGKWFEEWIRRFL [I36E]	2.97 kcal/mol
DAEELIELVERALKEGREIILLGVRITSEEAGKWFDEWIRRFL [I36D]	3.04 kcal/mol
